# Assay results published in article PMC8041783.
# Target: His-FliI(R33A) (Salmonella enterica) (UniProt P26465)
substance,measurement,value
His-FliI(R33A) (from UniProt P26465 1-456) (enzyme),"ATPase activity (Malachite Green assay, 4 mM ATP) at 17 to 85 nM FliI(R33A) (nmol of phosphate min^−1 μg^−1)",1.21
